Results reported in US20250136687A1 (SHANDONG SIMCERE BIOPHARMACEUTICAL, published 2025).
Read-outs that look alike come from different tables or passages of the source.

Assays:
[1] = target: T1, human CD3 on the cell surface (Jurkat cells, expanded human T cells, Jurkat-Lucia NFAT cells, human PBMC) (human, UniProt P07766 23-207; P04234 22-171; P09693 23-182); experiment: FACS, Jurkat cells
T1 construct: whole, on cells; Endogenous CD3 within the TCR-CD3 complex on cells (also zeta chains and TCR); the cell type is named under assay
T1 sequence (P07766 23-207, chain 1 of 3): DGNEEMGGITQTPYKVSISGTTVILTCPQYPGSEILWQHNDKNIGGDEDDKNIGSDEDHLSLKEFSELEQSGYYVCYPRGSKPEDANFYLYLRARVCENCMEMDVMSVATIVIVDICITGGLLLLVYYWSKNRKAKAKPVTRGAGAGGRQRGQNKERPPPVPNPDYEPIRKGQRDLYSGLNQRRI
T1 sequence (P04234 22-171, chain 2 of 3): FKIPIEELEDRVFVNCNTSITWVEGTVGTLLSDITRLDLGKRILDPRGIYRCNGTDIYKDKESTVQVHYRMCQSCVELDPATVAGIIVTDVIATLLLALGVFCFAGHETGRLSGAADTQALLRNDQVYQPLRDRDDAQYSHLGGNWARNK
T1 sequence (P09693 23-182, chain 3 of 3): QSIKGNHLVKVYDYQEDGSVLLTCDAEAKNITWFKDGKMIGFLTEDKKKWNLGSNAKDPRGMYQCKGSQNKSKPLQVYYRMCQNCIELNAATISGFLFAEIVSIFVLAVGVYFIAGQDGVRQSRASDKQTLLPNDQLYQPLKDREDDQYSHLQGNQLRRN
Method: (§1) The binding of the chimeric antibodies to CD3 on the cell surface was analyzed by detecting the binding of the antibodies to Jurkat cells and human T cells. Suspension cells Jurkat cells were scale-up cultured in T-75 cell culture flasks to the logarithmic growth phase, the supernatant of the medium was discarded by centrifugation, and the cell pellet was washed 2 times with PBS for later use. The expanded human T cells were washed 2 times with PBS for later use. After counting the cells in the previous step, the cell pellet was resuspended with [PBS+2% (w/w) BSA] blocking solution to 4×10⁶ cells/ml, and added to a 96-well FACS reaction plate at 50 μl/well, and then the chimeric antibody to be tested was added at 50 μl/well, and incubated at 4° C. for 1 h. The cells were centrifuged and washed 3 times with a PBS buffer. […] The cells were centrifuged and washed 5 times with PBS, and FACS (FACS Canto™, purchased from BD Company) was used for detection and result analysis. Data analysis was performed by software (CellQuest) to obtain the mean fluorescence […] (MFI) of the cells. And then software (GraphPad Prism8) was used for analysis, data fitting, and EC50 value calculation. The same method was used to simultaneously detect the binding of the chimeric antibodies to endogenous CD3 negative cells MOLT4 cells.

[2] = target: T1, human CD3 on the cell surface (Jurkat …); experiment: FACS, Jurkat cells; remark: listed apart in the source
Method: as §1

[3] = target: T1, human CD3 on the cell surface (Jurkat …); experiment: FACS, Jurkat cells; remark: listed apart in the source
Method: as §1

human CD3ε/δ-His [4] = target: T2, human CD3ε/δ-His (human, UniProt P07766 23-126; P04234 22-105); experiment: ELISA, coated antigen
T2 construct: Bought recombinant heterodimer with His tag; also called human CD3ε/δ protein
T2 sequence (P07766 23-126, stated change not applied, form in doubt, chain 1 of 2): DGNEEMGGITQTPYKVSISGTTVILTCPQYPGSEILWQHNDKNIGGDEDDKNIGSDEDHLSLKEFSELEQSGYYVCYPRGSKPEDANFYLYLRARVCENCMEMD
T2 sequence (P04234 22-105, stated change not applied, form in doubt, chain 2 of 2): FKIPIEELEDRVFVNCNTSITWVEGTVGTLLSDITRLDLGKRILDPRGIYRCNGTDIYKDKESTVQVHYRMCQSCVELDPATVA
Method: (§2) To detect the binding activity of the humanized antibodies to CD3 protein, CD3 protein was diluted with PBS to the final concentration of […], then added to a 96-well ELISA plate at 50 μL/well, and the plate was sealed with a plastic film, and incubated overnight at 4° C. On the next day, the plate was washed 2 times with PBS, and a blocking solution [PBS+2% (v/v) BSA] was added for blocking at room temperature for 2 h. The blocking solution was poured off, and the antibody (initial concentration of 100 nM, and gradient dilution at 1:10) or a negative control antibody was added at 50 µl/well. After incubation at 37° C. for 2 h, the plate was washed 3 times with PBS. […] TMB substrate was added at 50 μl/well, and incubated at room temperature for 10 min, and then a stop solution (1.0 N HCl) was added at 50 μl/well. The OD450 nm values were read by an ELISA microplate reader (Multimode Plate Reader, EnSight, purchased from Perkin Elmer).

[5] = target: T3, recombinant human CD3ε-ECD His protein (human, UniProt P07766 23-126); experiment: ELISA, coated antigen
T3 construct: extracellular domain; also called human CD3ε-His; CD3ε antigen protein; not shown: His tag
T3 sequence (P07766 23-126): as the sequence (P07766 23-126, stated change not applied, form in doubt, chain 1 of 2) above
Method: as §2

human CD3ε/δ-His [6] = target: T2, human CD3ε/δ-His; experiment: ELISA, coated antigen; remark: listed apart in the source
Method: as §2

[7] = target: T3, recombinant human CD3ε-ECD His protein; experiment: ELISA, coated antigen; remark: listed apart in the source
Method: as §2

[8] = target: T1, human CD3 on the cell surface (Jurkat …); experiment: cell-based or functional assay
[9] = target: T1, human CD3 on the cell surface (Jurkat …); experiment: cell-based or functional assay; remark: listed apart in the source
[10] = target: T1, human CD3 on the cell surface (Jurkat …); experiment: cell-based or functional assay; remark: listed apart in the source
[11] = target: T1, human CD3 on the cell surface (Jurkat …); experiment: cell-based or functional assay; remark: listed apart in the source
[12] = target: T1, human CD3 on the cell surface (Jurkat …); experiment: FACS, expanded human T cells
Method: as §1

[13] = target: T1, human CD3 on the cell surface (Jurkat …); experiment: FACS, expanded human T cells; remark: listed apart in the source
Method: as §1

[14] = target: T4, cynomolgus monkey CD3 on the surface of expanded monkey T cells (cynomolgus monkey, UniProt Q95LI5 22-198; Q95LI8 22-171; Q95LI7 23-181); experiment: FACS, expanded monkey T cells
T4 construct: whole, on cells; Endogenous CD3 within the TCR-CD3 complex on T cells expanded from cynomolgus monkey PBMC
T4 sequence (Q95LI5 22-198, chain 1 of 3): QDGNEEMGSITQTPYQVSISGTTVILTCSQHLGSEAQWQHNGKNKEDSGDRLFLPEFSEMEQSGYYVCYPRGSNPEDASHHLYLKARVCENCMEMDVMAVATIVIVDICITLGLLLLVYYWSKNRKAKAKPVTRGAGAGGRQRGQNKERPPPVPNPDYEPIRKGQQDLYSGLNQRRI
T4 sequence (Q95LI8 22-171, chain 2 of 3): as the sequence (P04234 22-171, chain 2 of 3) above, with I5V, N15K, I20V, S32T, D33N, I34N, T64A, S74N, V83L, H141R counted along it
T4 sequence (Q95LI7 23-181, chain 3 of 3): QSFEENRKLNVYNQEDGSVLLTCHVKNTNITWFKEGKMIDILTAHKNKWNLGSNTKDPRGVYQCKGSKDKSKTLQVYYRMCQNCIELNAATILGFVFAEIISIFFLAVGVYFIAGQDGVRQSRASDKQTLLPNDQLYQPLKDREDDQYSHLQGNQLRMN

| EC50 [1] | MFI_Max [1] | EC50 [2] | MFI_Max [2] | EC50 [3] | MFI_Max [3] | max-OD450 (human CD3ε/δ-His [4]) | max-OD450 [5] | max-OD450 (human CD3ε/δ-His [6]) | max-OD450 [7] | EC50 (nM), luciferase reporter, Jurkat-Lucia NFAT cells [8] | Maximum response value (RLU) [8] | Maximum response value (RLU) [9] | EC50 (nM), luciferase reporter, Jurkat-Lucia NFAT cells [10] | Maximum response value (RLU) [10] | Maximum response value (RLU) [11] | EC50 [12] | MFI_Max [12] | EC50 [13] | MFI_Max [13] | Binder | other results |
| --- | --- | --- | --- | --- | --- | --- | --- | --- | --- | --- | --- | --- | --- | --- | --- | --- | --- | --- | --- | --- | --- |
| 0.16 nM | 6340 MFI | 0.1 nM | 29500 MFI | 0.47 nM | 11300 MFI | 2.83 OD450 | 1.49 OD450 | 2.83 OD450 | 2.59 OD450 | 1.74 nM | 33400 RLU | 46900 RLU | 5.04 nM | 14300 RLU | 25400 RLU | 0.66 nM | 15400 MFI | 0.99 nM | 26500 MFI | 40G5c-hIgG1 (antibody, V domains shown) VH: EVQLVQSGAEVKKPGASVKVSCKASGYTFTNYYIHWVRQAPGQGLEWIGWIYPGDGNTKYNEKFKGRATLTADTSTSTAYLELSSLRSEDTAVYYCARDSYSNYYFDYWGQGTLVTVSS VL: DIVMTQSPDSLAVSLGERATINCKSSQSLLNSRTRKNYLAWYQQKPGQPPKLLIYWASTRESGVPDRFSGSGSGTDFTLTISSLQAEDVAVYYCTQSFILRTFGQGTKVEIKR | EC50 (human CD3ε/δ-His [4]): 0.36 nM; EC50 [5]: 0.22 nM; EC50 (human CD3ε/δ-His [6]): 0.36 nM; EC50 [7]: 0.22 nM; EC50 (nM), luciferase reporter, Jurkat-Lucia NFAT cells [9]: 5.97 nM; EC50 (nM), luciferase reporter, Jurkat-Lucia NFAT cells [11]: 22.5 nM; EC50 [14]: 0.89 nM; max_MFI [14]: 24100 MFI |
| 8.77 nM | 841 MFI | 20.4 nM | 4860 MFI | 6.18 nM | 2080 MFI | 0.16 OD450 | 0.05 OD450 | 0.16 OD450 | 0.16 OD450 | 23.7 nM | 14500 RLU | 12000 RLU | 7.41 nM | 6560 RLU | 8220 RLU | 15.8 nM | 2360 MFI | 5.71 nM | 5080 MFI | F2B-hIgG1 (antibody, V domains shown, also called F2Bs) VH: EVQLVESGGGLVQPGRSLRLSCAASGFTFDDYAMHWVRQAPGKGLEWVSGISWNSGSIGYADSVKGRFTISRDNAKNSLYLQMNSLRAEDTALYYCAKDSRGYGDYRLGGAYWGQGTLVTVSS VL: not shown | max_MFI [14]: 72 MFI |
